# Assay results published in PMC8274607, “A Derivative of the D5 Monoclonal Antibody That Targets the gp41 N-Heptad Repeat of HIV-1 with Broad Tier-2-Neutralizing Activity” (Journal of Virology, 2021).
# B1: D5_AR Fab (Fab, V domains shown)
# VH: QVQLVQSGAEVRKPGASVKVSCKASGDTFSSYAISWVRQAPGQGLEWMGSIIPLFGTAAYAQKFQGRVTITADESTSTAYMELSSLRSEDTAIYYCARDNPTFGAADSWGKGTLVTVSS
# VL: DIQMTQSPSTLSASIGDRVTITCRASEGIYHWLAWYQQKPGKAPKLLIYKASSLASGAPSRFSGSGSGTDFTLTISSLQPDDFATYYCQQYSNYPLTFGGGTKLEIK
# notes: also called D5_H011_L0; source: Expi293F, transfected, purified (protein G agarose, SEC)
# Molecular target: T1, covalent biotinylated CCIZN17 (synthetic IZ coiled coil fused to HIV-1 …)
# T1 construct: also called NHR mimetic; mimetic of the NHR trimer
# Experiment: BLI; biotinylated CCIZN17 (200 nM) loaded on streptavidin biosensors to 0.4 nm, Octet RED96; Fab in solution at known concentrations, 4 min association, 4 min dissociation; PBS pH 7.4 with 0.1% BSA and 0.05% Tween 20
# Conditions: both partners purified
binder,measurement,value
B1,Kd,1.6 nM
